± gives the standard deviation of the averaged measurements.
Test system: ATP
Assay: switch fluorescence ratio, 500 uM ATP over buffer (Cy3 cluster intensity, sum of 5 cycles each) (fold (ratio)); higher = stronger signal-on switching upon ATP binding; sequences stand for … in TCGTCGGCAGCGTCAGATGTGTATAAGAGACAGTTTTTTTTTTTTTTTTTTTTTTTTT…TC
Details: aptamer strand: ATP DNA aptamer (quencher-CACCTGGGGGAGTATTGCGGAGGAAGG + anchor), 100 nM annealed; ATP concentration: 500 uM
Summary of the method: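 The quencher-labelled ATP aptamer, at 100 nM, was annealed to Cy3-labelled switching-strand clusters on a modified Illumina MiSeq flow-cell. The clusters were imaged in selection buffer, then after 15 min with 500 uM ATP at 22 °C, and this buffer/ATP cycle ran five times with NaOH stripping and re-annealing between runs. Per-cluster fluorescence ratios, summed target-cycle over summed buffer-cycle Cy3 intensity, were averaged per switch-domain sequence. Clusters outside 100-1000 RFU were excluded.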
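Further: ATP exposure 15 min at 22 °C before imaging.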

| Sequence | switch fluorescence ratio |
| --- | --- |
| GGACTAGGTG | 1.16 ± 0.044 |
| GGGACAGGCG | 0.991 ± 0.095 |
| GAAGCTAATC | 2.77 ± 0.47 |
| AGGGGGCAAT | 1.11 ± 0.18 |
| ACGACTTTAG | 1.022 ± 0.0014 |
| TGAGTAAGGA | 1.03 ± 0.034 |
| GCTTATGCGG | 0.949 ± 0.014 |
| GGGGGGGGAG | 1.01 ± 0.03 |
| ACTATAAGAA | 1.03 ± 0.014 |
| CTATTAAGGT | 0.98 ± 0.021 |
| GGTTTCTAGG | 0.99311 ± 0.00018 |
| TTAGGGGAAG | 1.01 ± 0.022 |
| TTGCTTGTGT | 0.9983 ± 0.0049 |
| GGCTAGAATC | 0.986 ± 0.024 |
| AAGTTGGGTA | 0.978 ± 0.024 |
| ATTTCTAGGA | 0.987 ± 0.015 |
| TCTTTGAGGT | 0.989 ± 0.022 |
| TATTTTCGTA | 1 ± 0.021 |
| GGCCCACCCA | 1.02 ± 0.072 |
| AAGAGATTTT | 0.986 ± 0.012 |
| CCGAAAGCCG | 1.11 ± 0.024 |
| CATTATTTTT | 1.01 ± 0.024 |
| GGGCAAGAAG | 1.021 ± 0.0073 |
| GGAGATAGGG | 1.03 ± 0.017 |
| ATGGAGTCGG | 0.986 ± 0.021 |

| Sequence | switch fluorescence ratio |
| --- | --- |
| CGGTTAGCGG | 0.983 ± 0.044 |
| TACTGACTTG | 0.989 ± 0.014 |
| GGGGTAGTAG | 0.979 ± 0.013 |
| CCATGCCGGG | 0.979 ± 0.052 |
| TAGGTAGTGG | 1.01 ± 0.027 |
| GCGGTTTAAG | 1 ± 0.013 |
| GTTAGGTTGC | 1.01 ± 0.046 |
| GGATCTTTGA | 0.989 ± 0.027 |
| TTTTATGGCT | 0.982 ± 0.04 |
| TGGATAAGTT | 1.03 ± 0.025 |
| GGAGGTTGTG | 0.987 ± 0.017 |
| ATTATTAGAA | 0.9912 ± 0.0034 |
| CACGTCTGAA | 0.996 ± 0.047 |
| CCTATTGTGG | 0.993 ± 0.015 |
| TAGCCTTAGA | 0.983 ± 0.02 |
| ATCAGAGTGC | 1.03 ± 0.06 |
| GGAGTTCCAG | 0.978 ± 0.048 |
| TATCCTTTGT | 1.22 ± 0.2 |
| TATTAATAA | 1 ± 0.0029 |
| CATTCTAAAG | 1.02 ± 0.011 |
| GTGGGGGAAG | 0.993 ± 0.039 |
| GAGTAGCGGT | 1.01 ± 0.026 |
| CTGACGTGCT | 1.062 ± 0.004 |
| TTTACGGCCC | 1.07 ± 0.12 |
| CTTCGTGATG | 1.1044 ± 0.00079 |

| Sequence | switch fluorescence ratio |
| --- | --- |
| GGTCGAGGTT | 0.991 ± 0.035 |
| AGTCTGTAGT | 0.981 ± 0.036 |
| GAGCGGATTT | 1.03 ± 0.019 |
| CTAATGGTAT | 0.991 ± 0.022 |
| CGGTGCGGGT | 0.992 ± 0.016 |
| TGGGTACAGT | 1.03 ± 0.05 |
| GGAAAAGTTG | 0.9848 ± 0.0083 |
| AATTTTTAAG | 0.997 ± 0.011 |
| ACCCTCGCAG | 1.748 ± 0.0058 |
| GCTCAATTGA | 1.004 ± 0.01 |
| CAATAACTGG | 1.01 ± 0.015 |
| AGGAATGAGG | 0.958 ± 0.011 |
| AGGACGCTGG | 0.9449 ± 0.0088 |
| GGGGGTCCAG | 0.997 ± 0.022 |
| AGCCGCGCAG | 1.035 ± 0.0056 |
| TATGTAAGGG | 1.01 ± 0.026 |
| CTCGTAAACG | 1 ± 0.02 |
| GTTTAGTC | 0.976 ± 0.025 |
| CGTGGTTGCA | 0.989 ± 0.018 |
| AGCGGTGTGC | 0.9738 ± 0.0031 |
| GGAGGGTTGT | 0.979 ± 0.04 |
| CAGTTGTTGG | 0.984 ± 0.011 |
| CAGGCAGCAT | 1.32 ± 0.089 |
| CGTTGGGGGC | 0.998 ± 0.087 |
| CAGAGGGACT | 1.01 ± 0.023 |

| Sequence | switch fluorescence ratio |
| --- | --- |
| AAAGCAGGTA | 0.989 ± 0.029 |
| TTCGTTGGGG | 1.01 ± 0.041 |
| AGTGCCGTAA | 1.025 ± 0.0056 |
| TTGATATGGG | 1.03 ± 0.11 |
| TTGTATCCTG | 0.9637 ± 0.0011 |
| TTAGAGACGT | 1.03 ± 0.027 |
| CATTGCTATT | 1.02 ± 0.017 |
| CGAACCTTGG | 0.998 ± 0.019 |
| GAGTATAAGC | 0.9844 ± 0.0069 |
| CCGAAAAGAT | 1.44 ± 0.59 |
| TGACGTTTGC | 1.03 ± 0.12 |
| TAGTGCTGCA | 0.9692 ± 0.0012 |
| CGGGTAGCT | 1.01 ± 0.03 |
| ACGAGTTCCC | 1.01 ± 0.043 |
| GGGTATCAG | 0.955 ± 0.03 |
| GGTTCCTTA | 0.994 ± 0.045 |
| ACACGCGCCT | 1.08 ± 0.011 |
| AGTTTGACTC | 0.997 ± 0.026 |
| AGAAATTATA | 1.001 ± 0.0073 |
| AAGGTTTTCG | 1.01 ± 0.026 |
| ATAGGTACGC | 1.04 ± 0.036 |
| CTGTCTGGCT | 1.02 ± 0.016 |
| ATGTGGACAA | 1.02 ± 0.021 |
| TCACTGGTTG | 1.01 ± 0.011 |
| ACGGGGGCTT | 1.04 ± 0.062 |

— the supplement of paper PMC10126150
